Test results from patent publication US20210155676A1 (Gilead, published 2021).
Where a chain is given by its changes, count along the chain named.

Legend:
Human FcRn [1] = target: T1, Human FcRn (human, UniProt P55899 24-297; P61769 21-119); experiment: ELISA, FcRn coated on plate, pH 7.0
T1 construct: also called neonatal Fc receptor
Description: (§1) The binding of antibodies to FcRn of various species at different pHs was determined. A 96-well Maxisorp plate was coated with 100 ul of 5 μg/ml FcRn. The plate was incubated overnight at 4° C., and then blocked with 4% skim milk for 2 hr at room temperature after washing 3 times with 0.05% Tween 20 washing buffer. The plate was incubated with 3 fold serial dilution of primary antibody for 1 hr at room temperature. The plate was then washed 3 times and 100 of Fab-anti-human Fab-HRP or Goat anti-human IgG-HRP secondary antibody diluted in 4% skimmed milk was added. Plates were then incubated 50 min at room temperature, washed three times, and 100 μL fresh TMB substrate was added. Plates were developed for 3 minutes on bench with gentle shaking. Plate was quenched with 100 μL 1M HCl, shaken briefly, read at A450 on a spectramax m5 plate reader.

[2] = target: HIV-1 Env of subtype B isolate MGRM-B-105 (HIV-1); experiment: cell-based or functional assay
[3] = target: HIV-1 Env of subtype B isolate MGRM-B-118 (HIV-1); experiment: cell-based or functional assay
[4] = target: HIV-1 Env of subtype B isolate MGRM-B-112 (HIV-1); experiment: cell-based or functional assay
[5] = target: HIV-1 Env of subtype B isolate MGRM-B-132 (HIV-1); experiment: cell-based or functional assay
[6] = target: HIV-1 Env of subtype B isolate MGRM-B-111 (HIV-1); experiment: cell-based or functional assay
[7] = target: HIV-1 Env of subtype B isolate MGRM-B-110 (HIV-1); experiment: cell-based or functional assay
[8] = target: HIV-1 Env of subtype B isolate MGRM-B-115 (HIV-1); experiment: cell-based or functional assay
[9] = target: HIV-1 Env of subtype B isolate MGRM-B-136 (HIV-1); experiment: cell-based or functional assay
[10] = target: HIV-1 Env of subtype B isolate MGRM-B-106 (HIV-1); experiment: cell-based or functional assay
[11] = target: human FcγRIIIA on primary NK effector cells (human, UniProt P08637 17-254); experiment: cell-based or functional assay
human FcγRIIIA on primary NK effector cells, sequence (P08637 17-254): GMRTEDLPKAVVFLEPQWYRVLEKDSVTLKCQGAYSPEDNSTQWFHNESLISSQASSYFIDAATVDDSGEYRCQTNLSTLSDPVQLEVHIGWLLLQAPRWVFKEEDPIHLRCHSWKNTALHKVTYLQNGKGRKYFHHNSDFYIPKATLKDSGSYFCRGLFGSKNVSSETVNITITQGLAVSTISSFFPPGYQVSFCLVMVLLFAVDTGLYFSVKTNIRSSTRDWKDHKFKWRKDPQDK

Human FcRn [12] = target: T1, Human FcRn; experiment: ELISA, pH 7.0/6.0 ratio relative to PGT121
Description: as §1

Human FcRn [13] = target: T1, Human FcRn; experiment: ELISA, ratio of EC50 at pH 7.0 to EC50 at pH 6.0
Description: as §1

Human FcRn [14] = target: T1, Human FcRn; experiment: ELISA, FcRn coated on plate, pH 6.0
Description: as §1

[15] = target: HIV-1 Env of subtype B virus 15-124934 (HIV-1); experiment: cell-based or functional assay
[16] = target: HIV-1 Env of subtype B virus 15-102514 (HIV-1); experiment: cell-based or functional assay
[17] = target: HIV-1 Env of subtype B virus 15-101757 (HIV-1); experiment: cell-based or functional assay
[18] = target: HIV-1 Env of subtype B virus 15-124963 (HIV-1); experiment: cell-based or functional assay
[19] = target: HIV-1 Env of subtype B virus 15-124964 (HIV-1); experiment: cell-based or functional assay
[20] = target: HIV-1 Env of subtype B virus 15-124986 (HIV-1); experiment: cell-based or functional assay
[21] = target: HIV-1 Env of subtype B virus 15-124975 (HIV-1); experiment: cell-based or functional assay
[22] = target: HIV-1 Env of subtype B virus 15-124970 (HIV-1); experiment: cell-based or functional assay
[23] = target: HIV-1 Env of subtype B virus 15-124950 (HIV-1); experiment: cell-based or functional assay
[24] = target: HIV-1 Env of subtype B virus 15-124906 (HIV-1); experiment: cell-based or functional assay
[25] = target: HIV-1 Env of subtype B virus 15-101608 (HIV-1); experiment: cell-based or functional assay
[26] = target: HIV-1 Env of subtype B virus 15-124904 (HIV-1); experiment: cell-based or functional assay
[27] = target: HIV-1 Env of subtype B virus 15-124914 (HIV-1); experiment: cell-based or functional assay
[28] = target: HIV-1 Env of subtype B virus 15-124918 (HIV-1); experiment: cell-based or functional assay
[29] = target: HIV-1 Env of subtype B virus 15-124987 (HIV-1); experiment: cell-based or functional assay
[30] = target: HIV-1 Env of subtype B virus 15-124962 (HIV-1); experiment: cell-based or functional assay
[31] = target: HIV-1 92US727 Env (on virus) (HIV-1 isolate 92US727); experiment: cell-based or functional assay
HIV-1 BaL Env (on virus) = HIV-1 BaL Env (on virus) (HIV-1 strain BaL); experiment: cell-based or functional assay
[32] = target: HIV-1 92US712 Env (on virus) (HIV-1 isolate 92US712); experiment: cell-based or functional assay
[33] = target: HIV-1 93HT593 Env (on virus) (HIV-1 isolate 93HT593); experiment: cell-based or functional assay
[34] = target: HIV-1 92US657 Env (on virus) (HIV-1 isolate 92US657); experiment: cell-based or functional assay
gp140 BaL = target: T2, gp140 BaL (HIV-1 strain BaL); experiment: ELISA, gp140 coated
T2 construct: domain: gp140
Description: (§2) The in vitro binding characteristics of antibodies for both the antigen (HIV gp120) and Fc binding receptors (FcγRs, FcRn) were determined using an Enzyme-Linked Immunosorbant Assay (ELISA).

gp140 SHIV SF162P3 = target: T3, gp140 SHIV SF162P3 (SHIV SF162P3); experiment: ELISA, gp140 coated
T3 construct: domain: gp140; also called SHIV gp140
Description: as §2

T1 sequence (P55899 24-297 limits assumed, chain 1 of 2): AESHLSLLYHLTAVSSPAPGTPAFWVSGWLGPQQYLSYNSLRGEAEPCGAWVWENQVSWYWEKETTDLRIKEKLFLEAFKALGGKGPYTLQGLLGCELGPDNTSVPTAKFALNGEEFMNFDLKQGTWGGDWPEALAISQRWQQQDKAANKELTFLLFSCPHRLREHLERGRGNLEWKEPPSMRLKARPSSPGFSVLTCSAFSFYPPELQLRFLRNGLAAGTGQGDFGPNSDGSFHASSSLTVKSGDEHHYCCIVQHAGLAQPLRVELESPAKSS
T1 sequence (P61769 21-119 limits assumed, chain 2 of 2): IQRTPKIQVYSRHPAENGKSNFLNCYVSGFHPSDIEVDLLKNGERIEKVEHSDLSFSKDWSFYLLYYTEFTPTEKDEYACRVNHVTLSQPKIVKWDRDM

B1: PGT121.60 hIgG1/hLambda (antibody)
heavy: QMQLQESGPGLVKPSETLSLTCSVSGASISDSYWSWIRRSPGKGLEWIGYVHKSGDTNYNPSLKSRVHLSLDTSKNQVSLSLTGVTAADSGKYYCARTLHGRRIYGIVAFNEWFTYFYMDVWGTGTQVTVSSASTKGPSVFPLAPSSKSTSGGTAALGCLVKDYFPEPVTVSWNSGALTSGVHTFPAVLQSSGLYSLSSVVTVPSSSLGTQTYICNVNHKPSNTKVDKKVEPKSCDKTHTCPPCPAPELLAGPDVFLFPPKPKDTLMISRTPEVTCVVVDVSHEDPEVKFNWYVDGVEVHNAKTKPREEQYNSTYRVVSVLTVLHQDWLNGKEYKCKVSNKALPLPEEKTISKAKGQPREPQVYTLPPSREEMTKNQVSLTCLVKGFYPSDIAVEWESNGQPENNYKTTPPVLDSDGSFFLYSKLTVDKSRWQQGNVFSCSVLHEALHSHYTQKSLSLSPGK
light: not shown
B1 was tested, and the EC50 (Human FcRn [1]) was 78 nM, the “PGT121 IC50/PGT121.60 IC50” value [2] was 2.9 fold and the “neutralization IC50” value [2] was 0.0076 µg/mL. The “PGT121 IC50/PGT121.60 IC50” value [3] was 0.7 fold, the “neutralization IC50” value [3] was 3.31 µg/mL and the “PGT121 IC50/PGT121.60 IC50” value [4] was 2.5 fold. The “neutralization IC50” value [4] was 0.0058 µg/mL, the “PGT121 IC50/PGT121.60 IC50” value [5] was 1.2 fold and the “neutralization IC50” value [5] was 0.0077 µg/mL. The “PGT121 IC50/PGT121.60 IC50” value [6] was 2.2 fold, the “neutralization IC50” value [6] was 0.955 µg/mL and the “PGT121 IC50/PGT121.60 IC50” value [7] was 3.3 fold. For the same binder, the “neutralization IC50” value [7] was 0.0113 µg/mL, the “PGT121 IC50/PGT121.60 IC50” value [8] was 1.7 fold and the “neutralization IC50” value [8] was 0.141 µg/mL. The “PGT121 IC50/PGT121.60 IC50” value [9] was 1.2 fold, the “neutralization IC50” value [9] was 0.0071 µg/mL and the “PGT121 IC50/PGT121.60 IC50” value [10] was 4.1 fold. For the same binder, the “neutralization IC50” value [10] was 0.001 µg/mL, the “ADCC AUC, NK donor A4813, primary CD4+ T cells infected with HT593” value [11] was 185 and the “ADCC AUC, NK donor A4813, primary CD4+ T cells infected with US657” value [11] was 220. The “ADCC EC50, NK donor A4813, primary CD4+ T cells infected with HT593” value [11] was 0.7 nM, the “ADCC EC50, NK donor A4813, primary CD4+ T cells infected with US657” value [11] was 1.2 nM and the “ADCC Emax, NK donor A4813, primary CD4+ T cells infected with HT593” value [11] was 67%. For the same binder, the “ADCC Emax, NK donor A4813, primary CD4+ T cells infected with US657” value [11] was 72%, the “Fold vs PGT121” value (Human FcRn [12]) was 11 fold and the “Ratio pH 7.0/6.0” value (Human FcRn [13]) was 355. The EC50 (Human FcRn [14]) was 0.22 nM, the “PGT121 IC50/PGT121.60 IC50” value [15] was 12.1 fold and the “neutralization IC50” value [15] was 0.797 µg/mL. The “PGT121 IC50/PGT121.60 IC50” value [16] was 3.5 fold, the “neutralization IC50” value [16] was 0.0128 µg/mL and the “PGT121 IC50/PGT121.60 IC50” value [17] was 4.7 fold. For the same binder, the “neutralization IC50” value [17] was 0.0132 µg/mL, the “PGT121 IC50/PGT121.60 IC50” value [18] was 8.2 fold and the “neutralization IC50” value [18] was 2.05 µg/mL. For the same binder, the “PGT121 IC50/PGT121.60 IC50” value [19] was 3.5 fold, the “neutralization IC50” value [19] was 0.0026 µg/mL and the “PGT121 IC50/PGT121.60 IC50” value [20] was 3.2 fold. The “neutralization IC50” value [20] was 0.0015 µg/mL, the “PGT121 IC50/PGT121.60 IC50” value [21] was 5.5 fold and the “neutralization IC50” value [21] was 0.105 µg/mL. For the same binder, the “PGT121 IC50/PGT121.60 IC50” value [22] was 3.9 fold, the “neutralization IC50” value [22] was 0.0285 µg/mL and the “PGT121 IC50/PGT121.60 IC50” value [23] was 3 fold. For the same binder, the “neutralization IC50” value [23] was 0.0995 µg/mL, the “PGT121 IC50/PGT121.60 IC50” value [24] was 5.3 fold and the “neutralization IC50” value [24] was 0.0103 µg/mL. For the same binder, the “PGT121 IC50/PGT121.60 IC50” value [25] was 3.6 fold, the “neutralization IC50” value [25] was 1.84 µg/mL and the “PGT121 IC50/PGT121.60 IC50” value [26] was 3.1 fold. For the same binder, the “neutralization IC50” value [26] was 0.0121 µg/mL, the “PGT121 IC50/PGT121.60 IC50” value [27] was 3 fold and the “neutralization IC50” value [27] was 0.002 µg/mL. The “PGT121 IC50/PGT121.60 IC50” value [28] was 3 fold, the “neutralization IC50” value [28] was 0.0018 µg/mL and the “PGT121 IC50/PGT121.60 IC50” value [29] was 3.1 fold. For the same binder, the “neutralization IC50” value [29] was 0.0163 µg/mL, the “PGT121 IC50/PGT121.60 IC50” value [30] was 3.4 fold and the “neutralization IC50” value [30] was 0.0277 µg/mL.

B2: PGT121.56 hIgG1/hLambda (antibody)
heavy: B1 heavy with N60S, H68N, T83V, G84A, V85A, T124N
light: not shown
With B2 the “neutralization IC50, HIV-1 US727, CEM.NKr.CCR5.Luc assay” value [31] was 0.011 µg/mL, the “neutralization IC50, HIV-1 BaL, CEM.NKr.CCR5.Luc assay” value (HIV-1 BaL Env (on virus)) was 0.02 µg/mL and the “neutralization IC50, HIV-1 US712, CEM.NKr.CCR5.Luc assay” value [32] was 0.019 µg/mL. For the same binder, the “neutralization IC50, HIV-1 HT593, CEM.NKr.CCR5.Luc assay” value [33] was 0.164 µg/mL, the “neutralization IC50, HIV-1 US657, CEM.NKr.CCR5.Luc assay” value [34] was 0.142 µg/mL and the EC50 (gp140 BaL) was 0.59 nM. For the same binder, the EC50 (gp140 SHIV SF162P3) was 0.48 nM.
